Experimental data published in paper PMC11203576.

Target: SARS-CoV-2 spike protein RBD, original (wild-type), sfGFP fusion (SARS-CoV-2) (UniProt P0DTC2)
Assay: SPR; Biacore T200; […] (0.01 M HEPES, 0.15 M NaCl, 3 mM EDTA, 0.05% surfactant P20, […]

## Jacalin (natural protein)
  Kd: 428 nM
